Measurements reported in the nanobody polyreactivity screen of Harvey et al. (2022).

experiment: yeast display, Sf9 membrane polyspecificity reagent, FACS + sequencing; frameworks hold sequencing errors
Method in brief: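 Polyreactivity labels are assigned by the sorting gate from which each nanobody was recovered. The gates were low and high (top ~1%), set on anti-HA fluorescence for expression and streptavidin fluorescence for reagent binding. Before sorting, galactose-induced (36–48 hours) yeast display cells were stained for 1 hour at 4 °C with 10% biotinylated, detergent-solubilized Sf9 membrane reagent.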

Row | Sequence | polyreactivity (PSR sort gate)
1 | QVQLVESGGGLVQAGGSLRLSCAASGYTFYVYAMGWYRQAPGKERELVAAISSDTGRTYYADSVKGRFTISRDNAKNTVYLQMNSLKPEDTAVYYCAKRRVYGGYDYWGQGTQVTVSS | low polyreactivity
2 | QVQLVESGGGLVQAGGSLRLSCAASGITFTVNSMGWYRQAPAKERELVAAISNDGSTYYADSVKGRFTISRDNAKNSVYLQMNRLKTEDTAVYYCAADTWDVFGPYGYDYWGQGTQVTVSS | low polyreactivity
3 | QVQLVESGGGLVQAGGSLRLSCAASGSPFHRYVMGWYRQAPGKERELVAVINSTGGSTYYADSVKGRFTISRDHAKNTVDLQMNSLKPEDTAVYYCNAVRDWGPSQVYDGMDYWGQGTQVTVSS | low polyreactivity
4 | QVQLVESGGGLVQAGGSLRLSCAASGSIFDWYAMGWYRQAPGKEGELVAAISSGDSTYYADSVKGRFTISRDNAMNTVYLQMNSLKPEDTAVYYCAAVTKLSGIRYNYWGQGTQVTVSS | low polyreactivity
5 | QVQLVESGGGLVQAGGSLRLSCAASGFIFRYYAMGWYRQAPGKERELVAAISKRGGRTYYADSVKGRFTISRDNAKNTVYLQMNSLKPEDTAVYYCAAGVGTVAPDMDYWGQGTQVTVSS | high polyreactivity
6 | QVQLVESGGGLVQAGGSLRLSCPASGRIFDYYAMGRYRQAPGKERELVARITSGGTTNYADSVKGRFTISRDNAKNTVFLQMNSLKPEDTAVYYCNAQDYCDPLQMDYWGQGTQVTVSS | low polyreactivity
7 | QVQLVESGGGLVQAGGILRLSCASSVTFFMGWYRQAPGKEWELVAGISISDVSTYYADSVKGRFTISRDNAKNTVYLQMNSLKPEDTAVYYCAAEFYPTTGFDYWGQGTQVTVSS | low polyreactivity
8 | QVQLVESGGGLVQAGGSLRLSCAASGIIFGWNTMGWYRQAPGKEREFVAAISSSGGSTYADSVKGRFTISRDNAKNTVYLQMNSLKPEDTAVYYCAASKQPGSFEFDYWGQGTQVTVSS | high polyreactivity
9 | QVQLVESGGGLVQAGGSLRLSCAASGRIFYAYALGWYRQATGIERELVAAISRRGGSTYYADSVKGRFTISRDNAKNTVYLQMNSLKPEDTAVYYCAADRQFSYVYYIDPTAYEYCGQGTQVTVSS | high polyreactivity
10 | QVQLVESGGVLVQAGGSLRLRCAASGRIFSRYTMGWYRQAPGKERELVAAIRNTGSTNYADSVKGRFTISRDNAKNTVYLQMNSLKPEDTAVYYCNARTAYGAYHYYYPQRMDYWGQGTQVTVSS | high polyreactivity
11 | QVQLVESGGGLVQAGGSLRLSCAPSGRIFYAYAMGWYRHAPGKERELVAAITIGGNTNYADSVKGRFTSSRDNAKNTVYLQMNSLKPEVTAVYDCNARTYYYPWRGYHVVGSNDLGYWGQGTQVTVST | low polyreactivity
12 | QVQLVESGGGLVQAGGSLRLSCAASGFTFRGYTMGWYRQAPGKERELVAAITRSGTTTYYADSVKGRFTISRDNAKNTVYLQMNSLKPEDTAVYYCATAKFYRQYGYWGQGTQVTVSS | high polyreactivity
13 | QVQHVESGGGLVQAGGSLRLSCAASGYTFIMYVMGWYRQAPGKERELVAAIDSNGTSTYADSVKGRFTISLDNAKNTVYFQMNSLKPEDTAVYYCAAGDIFRVFKEYDYWGQGTQVTVSS | low polyreactivity
14 | QVQLVESGGGLVQAGGSLRLSCAASGSIFNGYVMGWYRQAPGKERELVAAISGSGGRTYYADSVKGRFTISRDNAKNTVYLQMNSLKPEDTAVYYCAAYPDLRDSRRIRYGYNYWGQGTQVTVSS | high polyreactivity
15 | QVQLVEAGGGLGQAGGSLRLSCAASGRILTPYARGWYRQAPGKERELVAANTSGGRTHYAHSVKGRFTMSRDNAKNTVYLQMNSLTPEDTAVYYCAARVRTGWWVRDDYWGQGTQVTLSS | high polyreactivity
16 | QVQLVESGGGLVQAGGSLRLSCAASGSTFPYNAMGWYRQAPGKERELVASISRRGGSTYYADSVKGRFTISRDNAKNTVYLQMNSLKPEDTAVYYCNASGGPYRYYYWGQGTQVTVSS | low polyreactivity
17 | QVQLVESGGGLVQAGGSLRLSCAASGSTFYGNAMGWYRQAPGKERELVATIDSTAGTNYADSVKGRFTISRDNAKNTVYLQMNSLKPEDTAVYYCAREYSIYNPPGYLGTVEYDYWGQGTQVTVSS | low polyreactivity
18 | QVQLVESGGGLVQAGGSLRLSCAASGRIFSTYTMGWYRQAPGKEMELVAAIRANGGSTYYADSVKGRFTISRDNAKNTVYLQMNSLKPEDTAVYYCAALYRRYPYHYDSWGQGTQVTVSS | high polyreactivity
19 | QVQLEESGGGLVQAGGSLRLSCAASGSIFVVYAMGWSRQAPGKERELVASIRTGGSTNYADSEKGRFTISRDNAKNNVYLQMNSLKPEDTAVYYCAAASWNSNRHYYVARYYYWGQGTQVTVSS | high polyreactivity
20 | QVQLVESGGGLVQAGGSLRLTCAASGSILDSNAMGWYRQAPGKERELVSAITSGGSTYYADSVKGRFTISRDNAKNTVYLQMNSLKPEDTAVYYCAAAYLGYGAVQPSYEGGYWGQGTQVTVSS | low polyreactivity
21 | QVQLVESGGGLVQAGGSLRLSCAASGRTFFYAMGWYRQAPGKEREFVAAISWSGGSTYYADSVKGRFTISRDNAKNTVYLQMNSLKPEDTAVYYCYKVGYYGVGTSKEFDYWGQGTQVTVSS | high polyreactivity
22 | QVQLVESGGGLVQAGGSLRLSCAASGFTFPYYAMGWYRQAPGKERELVAAISKSGGSTYFADSVKGRFTISRDNAKNTVYLQMNSLKPEDTAVYYCAAQGGSKYRGYYYWGQGTQVTVSS | high polyreactivity

Row | Sequence | polyreactivity (PSR sort gate)
23 | HVQLVESGGGLVQAGGSLRLRSAASGRIFYYNAMGWYRQAPGKERELVASISWDASSTYYADSVKGLFTISRDNAKNTVYLQMNSLKPEDTAVYYCNKIHLYRQYDYWGQGTQVTVSS | low polyreactivity
24 | QVQLVESGGGLVQAGGSLRLSCAASGSTFSANDMGWYRQAPGKEREFDAAITTSDDSTYYADSVKGRFTISRDNAKNTVYLQMNSVKPEDTAVYYCNAYSGYSFFGLGFFYKYDYWGQGTQVTVSS | low polyreactivity
25 | QVQLVESGGGLVQAGGSLRLSCAASGRIFWGYAMGWYRQAPGKERELVAGIRTSGGTTYYADSVKGRFTISRDNAKNTVYLQMNSLKPEDTAVYYCAVVQYTVYNSLYDYWGQGTQVTVSS | low polyreactivity
26 | QVQLVESGGGLVQAGGSLRLICAASGFILRRYAMGWFRPAPGKEREFVAAIRYRGGNTYYADSVKGRFTLSRDTAKNTVYFQMNSLNPEDTAVYYCAADWSEKYEYWRQGTQVTVSS | high polyreactivity
27 | KVQVVESGGGLVQAGGSLRLSCAASGSTFYYNAMGWYTQAPGKERELVAAITGSGTGTNYADSVKGRFTISRDNAKNTVYLQMNSLKPEDTAVYYCAADYVWRGDPINSYLSWYVYWGQGTQVTVSS | low polyreactivity
28 | QVQLEESGGGLVQAGGSLRLTCAASGSIFDYNAMGWYRQAHGKERELVAAITSGGITYADSVKGRFTISRDNAKNTVYLQMNSLKPEDTAVYYCAALDKLSKYRRYRYGYWGQGTQVTVSS | high polyreactivity
29 | QVQLVESGGGLVQAGGSLRLSCAASGSIYRWYAMGWYRQAPGKERELVASISSGTRTNYADSVKGRFTISRDNAKNTVYLQMNSLKPEDTAVYYCAAPYVKRWWGYGYWGQGTQVTVSS | high polyreactivity
30 | QVQLVESGGGLVQAGGSLRLSCAASGSTFDRYAMGWYRQAPGNERELVAAISSSGGTTYYADSVKGRFTITRDNAKTTVYVQMNSLKPEDTAVYYCAAVRYYESRGGYDYWGQGPQVTVSS | low polyreactivity
31 | QVQLVESGGGLVQAGGSLRLSCAASVSTFVGNAMGWYRQAPGKERELHAAISSGGSRTNYADSVKGRFTISRDNAKNTVYLQMNSLKPEDTAVYYCIAVFPRWQGSGRFAGGDYWGQGTQVTLSS | high polyreactivity
32 | QVQLVESGGGLVQAGGSLRLICAASGSTLAYNAMGWYRQAPGKERELVAGIRGSGGSTYYADSVKGRFTISRDNAKNTVYLQMNSLKPEDTAVYDCAADGLSNVRQMDYWGQGTQVTVSS | low polyreactivity
33 | QVQLVESGGGLVQAGGSLRLSCAASGFTFVYYVMGWYRPAPGKERELVAAISWSGGRTYYADSVKGRFTISRDNAKNTVYLQMNSLKPDDTAVYYCAAVRPYYYPLPTVPNLPYDYWGQGTQVTVSS | high polyreactivity
34 | QVQLVESGGGLVQAGGSLRISCAASGRTFPCKAMGWYRQAPGKERELVATITWSSGRTHYADSVKGRFTISRDNAKNTVYLQMNSLKPEDSAVYYCAAKWIVAVVGFYYWGQGTQVTVSS | low polyreactivity
35 | QVQLVESGGGLVQAGGSLRLSCAASGRTLNRNAMGWYRQAPGKERELVAAISRRGGSTNYADSVKGRFTISRDNAKNTVYLQMNSLKPEDTAVYYCARVTTVYDGRGFVDVKRGYWGQGTQVTVSS | high polyreactivity
36 | QVQLVESGGGLVQAGGSLRLSCAASGRIFAYYAMGWYRQAPGKERELVAAITTNGGGTYYADSVKGRFTISRDNETNTVYLQMNSLKAEDTAVYYCAKRSWIEYDYWGQGTQVTVSS | low polyreactivity
37 | QVQLVESGGGLVQAGGSLRLSCAASGRIFPSYAMGWYIQAPGKERELVAAITSSDSTYYADSVKGRFTISRDNAKNTVYLQMNSLKPEDTAVYYCAAAYSYSGWWWFGYWGQGTQVTVSS | high polyreactivity
38 | QVQLVESGGGLVQAGGSLRLSCAASGSTLGANAMGWYRQAPGKERELVAAISISDGDTYYADSVKGRFTISRDYAKNTVYLQMNSLKPEDTAVYYCAADYWFQYRWYDYWGQGTQVTVSS | high polyreactivity
39 | QVQLVESGGGLVQAGGSLRLSCAASGNIFDEYTMGWYRQAPWKERELVAAINSGGSTDYADSVKGRFTISRDNAKNTVYLQMNSLKPEDTAVYYCARDVWPTKIQQQPGYGRGEYWGQGTQVTVSS | low polyreactivity
40 | QVQLVESGGGLVQAGGSLRLSCAASGGTIHSYAMGLYRQANGKERDLVAAISGSGGSTYYADSVKGRFTISRDNAKNTFYLQMNSLKPEDTAVYYCAARDWGDGSEYYYWGQGTQVTVSS | high polyreactivity
41 | QVQLVESGGGLVQAGGSLRLSCAASGITFEGYAMGWYRQAPGNEREFVAAITSTGTSTRYADSVKGRFTISRDNAKNTVYLQMNSLKPEDTAVYYCAATSHFLSWHLRYYWGQGTQVTVSS | high polyreactivity
42 | QVQLVESGGGLVQAGGSLRLSCAASVRIFPIYAMGWYRQAPGKERELVAAIDSGGSTTYADSVKGRFTISRDNAKNTVYLQMNSLKPEDTAVYYCSAKGAYPYWYPVAYRYDYWGQGTQVTVSS | low polyreactivity
43 | QVQLVESGVGLVQAGGSLRLSCAASGRIFRLYAMGWYRQAPGKERELVAAISSSGGDTYYADSVKGRFTISRDNAKNTVYLQMNSLKPEDTAVYDCNARKRYANVHYNYWGQGTQVTVSS | high polyreactivity
